Results taken from PMC11320570 (2024).

Tests used:
Assay in all cases: ELISA
[1] = target: T1, DENV-2 EDIII wild-type Fc-fusion antigen (dengue virus serotype 2 (DENV-2), …)
T1 chain: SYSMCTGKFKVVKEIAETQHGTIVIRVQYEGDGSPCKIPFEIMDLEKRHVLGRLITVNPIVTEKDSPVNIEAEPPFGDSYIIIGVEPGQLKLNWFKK

[2] = target: soluble E80 protein of DENV-3 (dengue virus serotype 3 (DENV-3))
[3] = target: soluble E80 protein of DENV-1 (dengue virus serotype 1 (DENV-1))
[4] = target: soluble DENV-2 envelope protein (D2E80) (dengue virus serotype 2 (DENV-2), …)
R3N_2D3 = target: R3N_2D3
R2N_1G11 = target: R2N_1G11

B1: 2H12 mouse antibody (antibody, V domains shown)
VH: DVQLVEPGAELVQPGASVKMSCKASGYTFSSYWINWEKQRPGKGLEWIGNIYPGSGTVNYDDKFKSKATLTIDTSSNTAYMQLSSLTSEDSAVYYCTRGGSHAMDYWGQGTSVTVSS
VL: DIVMTQSQKFMSTSVGDRVSITCKASQNVRTSVAWYQQKPGQSPKALIYLASNRHTGVPDRFTGSGSGTDFTLTISNVQSEDLADYFCLQHWTYPYTFGGGTKLEIK
Q: B1 was tested. Which Kd [1] did it give?
A: 0.39 nM

B2: 2C8 mouse antibody (antibody, V domains shown)
VH: EVKLVESGGGLVQPGGSLSLSCAASGFTFTDYYMTWVRQPPGKALEWLALIRNKASGYTTEYSASVKGRFTISRDNSQSILYLQMNALRAEDSATYYCTRAKWDGHYFDYWGQGTTLTVSS
VL: DIQMTQSPASLSVSVGETVTITCRATKNIYNNLAWYQQKQGRSPQLLVYAATNLADGVPSRFSGSGSGTQFSLRINSLQSEDFGNYYCQHFWHTPWTFGGGTKLEIK
Q: Which Kd [1] does the source give for B2 here?
A: 0.22 nM

B3: 513 engineered and humanized antibody (antibody, V domains shown)
VH: QVQLVQSGAEVKKPGASVKVSCKAGFNIKDVYMSWVRQAPEQGLEWMGRIDPENGDTKYDPKLQGRVTMTADTSTNTAYMELRSLRSDDTAVYYCARGWEGFAYWGQGTLVTVSS
VL: DIVMTQSPASLAVSLGQRATISCRASENVDKYGNSFMHWYQQKPGQPPKLLIYRASELQWGVPDRFSGSGSGTDFTLTISSLQAEDVAVYYCQRSNEVPWTFGQGTKLEIK
Q: B3 was tested. Which Kd [1] did it give?
A: 0.066 nM

Q: What about the Kd [2] of the same binder?
A: 0.46 nM

Q: What about the Kd [3] of the same binder?
A: 0.054 nM

Q: What about the Kd [4] of the same binder?
A: 0.087 nM

B4: 3H5 mouse antibody (antibody, V domains shown)
VH: QVQLQQSGAEVARPGASVKLSCKASGYTFTSYWLQWVKQRPGQGLEWIGAIWPGDDDTRYAQKFQGKATMTADKSSSTAYIQLSNLASEDSAVYYCARKGGFAMDYWGQGTSVTVSS
VL: NIVMTQSPTSLAVSLGQRATISCRASESVDSFGKSFMHFYQQKPGQPPKLLIHLASNLESGVPARFTGRGSRTDFTLTIDPVEADDAATYYCQQNNEVPFTFGSGTKLEVK
Q: Which Kd [1] does the source give for B4 here?
A: 1.06 nM

B5: soluble E80 protein of DENV-4 (domain or fragment)
chain: MRCVGVGNRDFVEGVSGGAWVDLVLEHGGCVTTMAQGKPTLDFELIKTTAKEVALLRTYCIEASISNITTATRCPTQGEPYLKEEQDQQYICRRDVVDRGWGNGCGLFGKGGVVTCAKFSCSGKITGNLVQIENLEYTVVVTVHNGDTHAVGNDIPNHGVTATITPRSPSVEVKLPDYGELTLDCEPRSGIDFNEMILMKMKKKTWLVHKQWFLDLPLPWAAGADTSEVHWNYKERMVTFKVPHAKRQDVTVLGSQEGAMHSALTGATEVDSGDGNHMFAGHLKCKVRMEKLRIKGMSYTMCSGKFSIDKEMAETQHGTTVVKVKYEGAGAPCKVPIEIRDVNKEKVVGRIISSTPFAEYTNSVTNIELEPPFGDSYIVIGVGDSALTLHWFRKG
Q: How did the Kd (R3N_2D3) turn out when B5 was run?
A: 0.32 nM

Q: And the Kd (R2N_1G11)?
A: > 67 nM
